How the values were obtained:
[1] = target: T1, pro-transglutaminase of S. mobaraense, Phe-Arg-Ala-Pro deletion type and Arg insertion-variant of the pro-structure part
T1 chain: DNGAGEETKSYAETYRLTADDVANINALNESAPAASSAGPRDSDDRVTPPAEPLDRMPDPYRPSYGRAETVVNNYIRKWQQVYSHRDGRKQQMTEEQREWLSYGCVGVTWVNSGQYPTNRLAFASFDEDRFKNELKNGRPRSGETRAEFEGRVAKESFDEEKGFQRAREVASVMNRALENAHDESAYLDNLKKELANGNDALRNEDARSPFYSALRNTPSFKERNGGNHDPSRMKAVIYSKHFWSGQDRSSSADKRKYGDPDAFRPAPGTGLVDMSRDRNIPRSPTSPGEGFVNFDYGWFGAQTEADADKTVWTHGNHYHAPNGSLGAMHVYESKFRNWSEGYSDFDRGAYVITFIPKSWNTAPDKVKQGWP

[2] = target: T2, pro-transglutaminase of S. mobaraense, Gly-Pro-Lys type modified variant of the pro-structure part
T2 chain: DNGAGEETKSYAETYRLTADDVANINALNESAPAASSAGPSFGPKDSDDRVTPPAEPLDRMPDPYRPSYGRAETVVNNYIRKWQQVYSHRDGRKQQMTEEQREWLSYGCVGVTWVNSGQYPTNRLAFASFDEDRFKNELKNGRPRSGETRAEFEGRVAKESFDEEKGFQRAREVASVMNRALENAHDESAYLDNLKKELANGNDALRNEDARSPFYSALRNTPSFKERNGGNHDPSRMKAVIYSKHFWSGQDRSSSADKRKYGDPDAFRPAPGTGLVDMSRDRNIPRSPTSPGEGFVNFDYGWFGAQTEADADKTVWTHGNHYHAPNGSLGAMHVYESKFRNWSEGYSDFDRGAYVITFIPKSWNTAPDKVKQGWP

[3] = target: T3, pro-transglutaminase of S. mobaraense, Asp deletion type of the pro-structure part
T3 chain: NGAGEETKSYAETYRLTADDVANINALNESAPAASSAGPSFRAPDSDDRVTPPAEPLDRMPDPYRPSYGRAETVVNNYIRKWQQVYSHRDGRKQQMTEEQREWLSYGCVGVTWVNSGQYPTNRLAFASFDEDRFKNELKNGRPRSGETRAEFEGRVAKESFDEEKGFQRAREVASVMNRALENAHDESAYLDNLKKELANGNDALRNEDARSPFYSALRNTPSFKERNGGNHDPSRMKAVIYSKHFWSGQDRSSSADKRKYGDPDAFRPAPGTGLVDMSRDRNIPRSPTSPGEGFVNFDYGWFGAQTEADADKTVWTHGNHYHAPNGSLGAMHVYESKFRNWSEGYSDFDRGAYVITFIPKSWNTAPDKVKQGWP

[4] = target: T4, pro-transglutaminase of S. mobaraense, Gly-Pro-Arg type modified variant of the pro-structure part
T4 chain: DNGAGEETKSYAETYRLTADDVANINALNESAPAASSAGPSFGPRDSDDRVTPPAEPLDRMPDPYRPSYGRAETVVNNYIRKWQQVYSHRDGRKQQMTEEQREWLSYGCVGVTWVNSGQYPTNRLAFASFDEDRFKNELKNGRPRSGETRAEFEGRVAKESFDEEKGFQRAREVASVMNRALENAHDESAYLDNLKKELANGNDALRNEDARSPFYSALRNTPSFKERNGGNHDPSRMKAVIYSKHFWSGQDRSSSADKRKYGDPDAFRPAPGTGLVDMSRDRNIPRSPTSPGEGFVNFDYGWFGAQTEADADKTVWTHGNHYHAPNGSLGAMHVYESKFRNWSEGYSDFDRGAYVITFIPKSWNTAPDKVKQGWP

[5] = target: T5, pro-transglutaminase of S. mobaraense, Ala-Pro deletion type of the pro-structure part
T5 chain: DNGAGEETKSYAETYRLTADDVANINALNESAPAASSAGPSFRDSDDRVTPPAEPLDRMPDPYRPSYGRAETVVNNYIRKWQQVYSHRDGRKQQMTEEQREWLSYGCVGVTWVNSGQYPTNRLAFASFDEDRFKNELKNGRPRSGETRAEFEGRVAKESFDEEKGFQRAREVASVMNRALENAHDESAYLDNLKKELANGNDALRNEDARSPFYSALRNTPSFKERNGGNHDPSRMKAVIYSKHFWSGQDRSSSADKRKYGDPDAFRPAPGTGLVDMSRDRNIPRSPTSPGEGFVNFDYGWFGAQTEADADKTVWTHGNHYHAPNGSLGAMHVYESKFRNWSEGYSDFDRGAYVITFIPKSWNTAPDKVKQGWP

[6] = target: T6, pro-transglutaminase of S. mobaraense, Phe-Arg-Ala-Pro deletion type and Lys insertion-variant of the pro-structure part
T6 chain: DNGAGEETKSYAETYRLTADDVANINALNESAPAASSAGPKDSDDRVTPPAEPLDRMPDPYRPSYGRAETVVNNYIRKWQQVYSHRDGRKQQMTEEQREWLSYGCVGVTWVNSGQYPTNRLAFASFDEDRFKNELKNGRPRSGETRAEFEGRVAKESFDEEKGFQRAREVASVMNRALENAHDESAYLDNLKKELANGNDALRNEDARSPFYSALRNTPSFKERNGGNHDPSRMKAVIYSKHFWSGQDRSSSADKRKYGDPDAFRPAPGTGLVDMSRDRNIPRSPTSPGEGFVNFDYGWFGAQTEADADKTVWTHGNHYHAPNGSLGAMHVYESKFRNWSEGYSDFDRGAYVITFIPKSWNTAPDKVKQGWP

[7] = target: T7, pro-transglutaminase of S. mobaraense, Asp-Asn-Gly-Ala-Gly-Glu deletion type of the pro-structure part
T7 chain: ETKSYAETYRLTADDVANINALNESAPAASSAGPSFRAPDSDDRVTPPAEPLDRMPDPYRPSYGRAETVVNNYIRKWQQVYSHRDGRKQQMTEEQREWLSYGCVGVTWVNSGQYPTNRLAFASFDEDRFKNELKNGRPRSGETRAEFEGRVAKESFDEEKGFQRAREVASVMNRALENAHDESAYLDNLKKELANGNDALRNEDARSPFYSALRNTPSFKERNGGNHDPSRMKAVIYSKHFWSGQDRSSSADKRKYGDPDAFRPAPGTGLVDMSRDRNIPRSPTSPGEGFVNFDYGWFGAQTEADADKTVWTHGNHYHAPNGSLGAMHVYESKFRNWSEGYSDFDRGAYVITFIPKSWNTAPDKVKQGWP

[8] = target: T8, pro-transglutaminase derived from S. mobaraense IFO13819 (transglutaminase having the pro-structure part)
T8 chain: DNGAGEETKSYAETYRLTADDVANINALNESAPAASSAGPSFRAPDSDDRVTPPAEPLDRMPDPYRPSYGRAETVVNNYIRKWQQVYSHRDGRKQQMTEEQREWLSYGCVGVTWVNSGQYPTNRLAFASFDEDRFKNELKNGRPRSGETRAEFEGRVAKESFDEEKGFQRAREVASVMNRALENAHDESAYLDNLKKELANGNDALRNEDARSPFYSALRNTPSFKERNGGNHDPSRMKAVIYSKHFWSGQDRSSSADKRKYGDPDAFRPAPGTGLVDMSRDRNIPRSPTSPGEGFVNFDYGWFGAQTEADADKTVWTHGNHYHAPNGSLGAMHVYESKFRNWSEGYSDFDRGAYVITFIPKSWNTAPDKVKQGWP

[9] = target: T9, pro-transglutaminase of S. mobaraense, Phe-Arg-Ala-Pro deletion type of the pro-structure part
T9 chain: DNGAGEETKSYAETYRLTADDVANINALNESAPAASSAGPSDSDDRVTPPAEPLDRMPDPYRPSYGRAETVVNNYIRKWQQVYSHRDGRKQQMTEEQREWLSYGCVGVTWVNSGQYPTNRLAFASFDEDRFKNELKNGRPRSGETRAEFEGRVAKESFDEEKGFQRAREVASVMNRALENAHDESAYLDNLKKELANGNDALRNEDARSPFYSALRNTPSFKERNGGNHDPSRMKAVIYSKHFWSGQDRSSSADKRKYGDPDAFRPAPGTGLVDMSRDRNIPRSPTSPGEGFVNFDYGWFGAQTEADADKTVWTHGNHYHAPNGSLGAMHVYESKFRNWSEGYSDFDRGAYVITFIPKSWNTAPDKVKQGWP

B1: SAMP45, serine protease produced by Streptomyces albogriseolus (protein)
chain: NGENSTAAGSSASATALKGKHRVTLITGDRVALDAKGRVVGLEPAEGREHIPVQIRRSDGHTLVVPADAARLVASGKLDQRLFDVTELNKAATRTAHRGGLKVIVGYRGAAKAAKADVRDAGTVRRTLTSLNADAVQTPQEAGAELWEAVTDGDRTASGVARVWLDGVRKASLDTSVGQIGTPKAWEAGYDGKGVKIAVLDTGVDATHPDLKGQVTASKNFTSAPTTGDVVGHGTHVASIAAGTGAQSKGTYKGVAPGAKILNGKVLDDAGFGDDSGILAGMEWAAAQGADIVNMSLGGMDTPETDPLEAAVDKLSAEKGILFAIAAGNEGPQSIGSPGSADSALTVGAVDDKDKLADFSSTGPRLGDGAVKPDLTAPGVDITAASAKGNDIAKEVGEKPAGYMTISGTSMATPHVAGAAALLKQQHPEWKYAELKGALTASTKDGKYTPFEQGSGRVQVDKAITQTVIAEPVSLSFGVQQWPHADDKPVTKKLTYRNLGTEDVTLKLTSTATGPKGKAAPAGFFTLGASTLTVPANGTASVDVTADTRLGGAVDGTYSAYVVATGAGQSVRTAAAVEREVESYNVTLKVLDRSGKATANYMAYLSGLTGLGKDRSYAPYEADGAVSVRVPKGGYVLDASVLVGADPETWRGADWLAQPKLDVTRNTTVTVDARKAKPVKVTVPGKAAKAQFASADYTIETNDSAVSYGWWLENYSGFRSAHLGPQITNGTLSQQWNTHFSNGAKAQYTAISGGKVKKLATGYTRAFKAKEFATVQVGMGAAASGKKGAVTAFGWLPGSSGASGFSQEQKLPSTRTLYLSTVNGVTWDLDFEQLGGVDNEGWPIYDAVYTIGVGKTYKGGKTYKETVNTAVFGPRLTSSYGVFRDGNSIYGVIPLFADGKGHAGSSEFSSAVTTLYRNGKKVGSNNDPLFGEEGFTVPSGDAAYRLTTSVKRSAKVAAASTRIDASWTFRSKKTSGEKQLPVSSARFAAVTGLDSKVAAGKKATFPVVVEGAAQGKNLKSLAVYVSYNGGKTWKKTTVTKGKITVKNPAKGKAISFRAKITDKKGNASLITIHNAYYGK
- N-terminal amino acid sequence of the cleaved transglutaminase [1]: Ser-Ala-Gly-Pro-Lys (SEQ ID NO: 69) or Ser-Ala-Gly-Pro-Arg (SEQ ID NO: 70) was found to be added to the sequence of the naturally occurring mature transglutaminase for C. glutamicum ATCC13869 harboring pVSS1 and pPKSPTG13, or pVSS1 and pPKSPTG14
- N-terminal amino acid sequence of the cleaved transglutaminase [2]: the sequence identical to that of the naturally occurring mature transglutaminase was confirmed for C. glutamicum ATCC13869 harboring pVSS1 and pPKSPTG11, or pVSS1 and pPKSPTG12, which had Asp as the N-terminal amino acid residue
- N-terminal amino acid sequence of the cleaved transglutaminase [3]: Phe-Arg-Ala-Pro was added to the naturally occurring mature transglutaminase in the transformant harboring pPKSPTG1 D or pPKSPTG1 DNGAGE
- N-terminal amino acid sequence of the cleaved transglutaminase [4]: the sequence identical to that of the naturally occurring mature transglutaminase was confirmed for C. glutamicum ATCC13869 harboring pVSS1 and pPKSPTG11, or pVSS1 and pPKSPTG12, which had Asp as the N-terminal amino acid residue
- N-terminal amino acid sequence of the cleaved transglutaminase [5]: Phe-Arg was added to the N-terminal of the naturally occurring mature transglutaminase shown in SEQ ID NO: 5 in the transformant harboring pPKSPTG1 AP
- N-terminal amino acid sequence of the cleaved transglutaminase [6]: Ser-Ala-Gly-Pro-Lys (SEQ ID NO: 69) or Ser-Ala-Gly-Pro-Arg (SEQ ID NO: 70) was found to be added to the sequence of the naturally occurring mature transglutaminase for C. glutamicum ATCC13869 harboring pVSS1 and pPKSPTG13, or pVSS1 and pPKSPTG14
- N-terminal amino acid sequence of the cleaved transglutaminase [7]: Phe-Arg-Ala-Pro was added to the naturally occurring mature transglutaminase in the transformant harboring pPKSPTG1 D or pPKSPTG1 DNGAGE
- N-terminal amino acid sequence of the cleaved transglutaminase [8]: it had the structure in which the 4 C-terminal amino acids of Phe-Arg-Ala-Pro from the pro-structure part was added to the naturally occurring mature transglutaminase
- N-terminal amino acid sequence of the cleaved transglutaminase [9]: Ser-Ala-Gly-Pro-Ser was added to the N-terminal of the naturally occurring mature transglutaminase in the transformant harboring pPKSPTG1 FRAP

— patent US20030082746
